Data published in PMC10641069, “Intra- and inter-molecular regulation by intrinsically-disordered regions governs PUF protein RNA binding” (Nature Communications, 2023).
Where a chain is given by its changes, count along the chain named.

T1: FBF-2 RBD+CT;LST-1 B peptide (Caenorhabditis elegans;Caenorhabditis …, UniProt Q09312;P91820 164-632;67-98, |)
T1 sequence 1: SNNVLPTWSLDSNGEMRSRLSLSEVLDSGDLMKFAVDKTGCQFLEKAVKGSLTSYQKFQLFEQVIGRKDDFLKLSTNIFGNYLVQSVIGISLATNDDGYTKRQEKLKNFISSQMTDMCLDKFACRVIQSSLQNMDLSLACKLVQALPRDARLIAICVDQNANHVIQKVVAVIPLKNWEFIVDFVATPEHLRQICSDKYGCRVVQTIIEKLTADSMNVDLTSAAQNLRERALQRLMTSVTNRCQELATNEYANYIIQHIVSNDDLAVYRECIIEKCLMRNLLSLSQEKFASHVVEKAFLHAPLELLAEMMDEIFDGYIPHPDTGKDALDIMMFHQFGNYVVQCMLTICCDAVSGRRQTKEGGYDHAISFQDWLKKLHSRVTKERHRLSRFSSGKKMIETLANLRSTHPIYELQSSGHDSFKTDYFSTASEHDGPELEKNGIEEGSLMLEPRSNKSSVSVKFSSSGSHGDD
T1 sequence 2: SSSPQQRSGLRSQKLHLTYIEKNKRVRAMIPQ

T2: FBF-2 RBD+CT L610A;LST-1 B peptide (Caenorhabditis elegans;Caenorhabditis …, UniProt Q09312;P91820 164-632;67-98, L610A|)
T2 sequence 1: T1 sequence 1 with L447A
T2 sequence 2: T1 sequence 2

T3: FBF-2 RBD+CT Y479A (Caenorhabditis elegans, UniProt Q09312 164-632, Y479A)
T3 sequence: T1 sequence 1 with Y316A


How the values were obtained:
[1] = target: T4, FBF-2 RBD+CT Loop6A (Caenorhabditis elegans, UniProt Q09312, D594A/E592A/E597A/E599A/E604A/E605A); assay: ITC, peptide into FBF-2 RBD + CT Loop6A, no RNA; format: binding, C. elegans; conditions: 20 °C, pH 7.4
T4 construct: A cDNA fragment encoding C. elegans FBF-2 RBD + CT (residues 164-632) was cloned into the pSMT3 vector; His6-SUMO (N, cleaved yes); made in house; host or cells: E. coli BL21-CodonPlus (DE3)-RIL (as for wild type)
Experimental: Experiments were performed at 20 °C using a MicroCal PEAQ-ITC Automated (Malvern Instruments) with a 200-μL standard cell and a 40-μL titration syringe. FBF-2 and LST-1 variants were prepared in a buffer of 20 mM HEPES pH 7.4, 150 mM NaCl, and 0.5 mM TCEP by gel filtration. LST-1 (100–400 µM) was titrated from the syringe into the cell containing FBF-2 (10–30 µM) in 2 µl aliquots. Experiments were performed in duplicate due to the limitation of the amount of protein needed. Data were analyzed using the MicroCal PEAQ-ITC Analysis Software (version 1.40) provided by the manufacturer with the one-site model (Table S3).
Supplementary Table 3. Protein interaction affinities, stoichiometries, and thermodynamic parameters between FBF-2 CT/LST-1 variants and FBF-2 measured by ITC. Two technical replicates (n=2 independent experiments) were performed for each analysis with similar results, and the values are shown for each replicate. Source data are provided as a Source Data file. […]
RBD+CT LST-1 A none Not detected
RBD FBF-2 CT none Not detected
1 Reported previously 18.

[2] = target: T1, FBF-2 RBD+CT;LST-1 B peptide; assay: EMSA; 50 uM LST-1 B; EMSA: FBF-2 in 20 mM HEPES pH 7.4, 150 mM NaCl, 0.5 mM TCEP mixed 1:1 with 5 nM final RNA in 10 mM HEPES pH 7.4, 0.01% Tween 20, 0.1 mg/ml BSA, 0.1 mg/ml yeast; conditions: protein: recombinant;recombinant; tags: none (His6-SUMO removed with Ulp1);none (His6-SUMO removed with Ulp1); copies: 1;1; label: 3'-Cy5
[3] = target: T2, FBF-2 RBD+CT L610A;LST-1 B peptide; assay: as above; conditions: protein: recombinant;recombinant; tags: none (His6-SUMO removed with Ulp1);none (His6-SUMO removed with Ulp1); copies: 1;1; label: 3'-Cy5
[4] = target: T3, FBF-2 RBD+CT Y479A; assay: EMSA; 50 uM LST-1 B present (Y479A disrupts LST-1 binding, no complex); EMSA: FBF-2 in 20 mM HEPES pH 7.4, 150 mM NaCl, 0.5 mM TCEP mixed 1:1 with 5 nM final RNA in 10 mM HEPES pH 7.4, 0.01% Tween 20, 0.1 mg/ml BSA, 0.1 mg/ml yeast; conditions: protein: recombinant; tags: none (His6-SUMO removed with Ulp1); label: 3'-Cy5

T4 sequence (Q09312 164-632 E592A/D594A/E597A/E599A/E604A/E605A): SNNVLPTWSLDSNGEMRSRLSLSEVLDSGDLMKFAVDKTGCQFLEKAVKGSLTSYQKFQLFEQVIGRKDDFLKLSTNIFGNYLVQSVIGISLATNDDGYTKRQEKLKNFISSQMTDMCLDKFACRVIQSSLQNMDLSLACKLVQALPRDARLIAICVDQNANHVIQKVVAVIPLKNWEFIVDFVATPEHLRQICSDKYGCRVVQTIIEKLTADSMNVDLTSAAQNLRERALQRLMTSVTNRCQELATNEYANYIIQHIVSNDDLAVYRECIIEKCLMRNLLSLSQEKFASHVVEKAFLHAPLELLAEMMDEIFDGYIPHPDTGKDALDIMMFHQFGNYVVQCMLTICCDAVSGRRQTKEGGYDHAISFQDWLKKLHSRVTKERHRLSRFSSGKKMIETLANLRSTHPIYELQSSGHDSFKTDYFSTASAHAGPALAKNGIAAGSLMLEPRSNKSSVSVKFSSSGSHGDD

Row | Molecule | -T∆S ([1]; replicate 1) [kcal/mol] | ∆G ([1]; replicate 1) [kcal/mol] | ∆H ([1]; replicate 1) [kcal/mol] | -T∆S ([1]; replicate 2) [kcal/mol] | ∆G ([1]; replicate 2) [kcal/mol] | ∆H ([1]; replicate 2) [kcal/mol] | Kd [2] [nM] | Kd [3] [nM] | Kd [4] [nM]
1 | LST-1 B: LST-1 B peptide, residues 67–98, expressed in E. coli (SSSPQQRSGLRSQKLHLTYIEKNKRVRAMIPQ; left off: His6-SUMO, N-terminal, cleaved) | 5.07 | -8.01 | -13.1 | 3.59 | -7.91 | -11.5 |  |  | 
2 | AUCAUGUGCCAUAC (ssRNA) [gld-1 FBEa RNA (EMSA)] |  |  |  |  |  |  | 68 ± 21 | 82 ± 18 | 41 ± 6
